Here are results for 24 sequences from the DeepSol protein solubility set.

This data set is described as follows: soluble on expression in E. coli; label from the status in PepcDB or PDB records.
For the sequence “GMTRPAHPISRYPVPELAALPDDIRQRILEVQDKAGFVPNVFLTLAHRPDEFRAFFAYHDALMLKDGGLTKGEREMIVVATSAANQCLYCVVAHGAILRIYEKKPLVADQVAVNYLKADIPPRQRAMLDFALKVCKASHEVNEADFEALREHGFTDEDAWDIAAITAFFGLSNRMANTIGMRPNDEFFLMGRVPKSK”, the “soluble on expression in E. coli” value is given as “soluble”. The same measure for “MGHHHHHHSHGTRAFGARRNTIDSTSSFSQFRNLSHRSLSIGRASGTQGSLDTGSDLGDFMDYDPNLLDDPQWPCGKHKRVLIFPSYMTTVIDYVKPSDLKKDMNETFKEKFPHIKLTLSKIRSLKREMRKLAQEDCGLEEPTVAMAFVYFEKLALKGKLNKQNRKLCAGACVLLAAKIGSDLKKHEVKHLIDKLEEKFRLNRRELIAFEFPVLVALEFALHLPEHEVMPHYRRLVQSS”: “soluble”. The value for “GPGSMKPSFYAVAVGKARGIYSTWAQCSEQVTGYPGCIYKGFRTLDEARSFLAAHPLPSTGSAVSLGGGSSSSVAAPYPSSSEHAALGSNYFKGRLKRETREDLLAGEESVAERQARRRRADHAQIAVAPPELSSMSASLSAATPSTTASKPLATTTTTSSPGAFEVVYVDGACSHNGTSQARAGYGGYYGSMSDPRNFSCPVPLTESQTNNRGEVRAVIHAIVQAFVDAGAPADALEATHLVDPSAWRLVDLTRPLPHLIIYTDSRYVIDGLTRYAKKWVQNGFVLSTNEPVQNQDLWRQLIRLRDRYNTLYARQQHDQQRACQWGDGHHSEADLAQLVRYTCQNARNDKSEGVELIHVRGHSKVHGNEMADSLAVMGSRLHRS” was “soluble”. “MAFNKVKIVKGSGGWGGPLIIEPTEKKNKVVYVTGGAKPETAVKIAELTGCELIDGFSQGVKDDEIACVIINCGGTLRCGIYPQKKIPTINIMKTGKSGPLAMFIKEDIYVSGVKPTNVEQ”: the “soluble on expression in E. coli” value is recorded as “not soluble”.

As for “MSSKGSVVLAYSGGLDTSCILVWLKEQGYDVIAYLANIGQKEDFEEARKKALKLGAKKVFIEDVSREFVEEFIWPAIQSSALYEDRYLLGTSLARPCIARKQVEIAQREGAKYVSHGATGKGNDQVRFELSCYSLAPQIKVIAPWRMPEFYNRFKGRNDLMEYAKQHGIPIPVTPKNPWSMDENLMHISYEAGILENPKNQAPPGLYTKTQDPAKAPNTPDILEIEFKKGVPVKVTNVKDGTTHQTSLELFMYLNEVAGKHGVGRIDIVENRFIGMKSRGIYETPAGTILYHAHLDIEAFTMDREVRKIKQGLGLKFAELVYTGFWHSPECEFVRHCIAKSQERVEGKVQVSVLKGQVYILGRESPLSLYNEELVSMNVQGDYEPTDATGFININSLRLKEYHRLQSKVTAK”, the “soluble on expression in E. coli” value is listed as “not soluble”. The value for “EVVRLGDVLELCQYGLSVPLKDKGKYPVIRMDEIVNGYVVTDIAKYADLDEETFKNFKLEKGDVLFNRTNSLELVGRTGIFLLDGYYVFASYLIRLRPKHEILHPHFLTFYLIFSQSRLKQLATVAVHQANINATNLKKFKIPLPPLPEQQKIAEILSTV” was “soluble”; that for “MKTIHIYTNGRFEEKQSGIVREFPLVLHVNGREIATLISSPHDLRFLVAGFLRNQGFVERAEDFHMLAVCDDFGIANARIRGELPERLKPVLTSGCGTGVTFTLETPKIPPPLALPAITTDAVFRLMEELARRADNYRSHGGIHSAAVGDGEGNLLLFAEDIGRHNTLDRIAGEALFKGIDLAGTILVTSGRVSTEMAAKCARLGIALIASRTSATDMAVKMCDEAGIPLIGYVRGGKFTVYAHHERLAMAPPVGAIHELPLPASAQGRRIPGITGVILAGGQSRRMGSNKALLPYKGGRFIEAIHRQLAEIFDEVLLVTNNPEQYDFLPCRKVADIHPGMGALAGIHAGLHHAANPAAFMVACDMPYLNSDLIRHLATLADPGGVLIPESPAGLEPLHAVYGKGCLAAIETTLLSGERRIVSFFGRTNVNRVNAEQVALFDPDYATFSNINTPVDYYRLRDGERDELDAALGADRIAGLEHHHHHH” was “not soluble”; that for “MLMIKVVCGKKGSGKTRALVDSANSFVSTALGDAVFIDGSSQLMCDLHHKVRFINVSEFPIDISSSCTFLGFLCGIISSNFDVKWVYMDDLIRIVRKPPHEMKELFDGFNELSEKFNVDFYVSIEGDPDSMPDFIKVCY” was “not soluble”. “MTLNIYTEEWAPISFSVDGKPDGLAVQVVQEIQKRIDNQDPIKVVPWARGWKIITEQPNTVLFTMTRTAERERMFSLIGPVAVGTTNFYALKNSNLKINLEHHHHHH”: the “soluble on expression in E. coli” value is listed as “not soluble”. Take “RPNDIYVNMKTDFKAQLARCQKLLDGGARGQNACSEIYIHGLGLAINRAINIALQLQAGSFGSLQVAANTSTVELVDELEPETDTREPLTRIRNNSAIHIRVFRVTPK”: the “soluble on expression in E. coli” value was “not soluble”. For “MPRVDHGSPQAGPPAPCVGILLAGGQGRRFAAASGGQDKLLARLADGTAVAVRAAAALREATDAVVAVVRPESAVLAALLRGQGCHVLESEQAREGMGASLAAAARFLLAGQVPDMPERADVCLVALADMPWVRRDTLSAVRAAACADGITVPVHQGRRGHPVAFGRSLWGELAALRGDVGARELLRRHRVAAVEVDDPGVAADVDTPGDLAGDRALEHHHHHH”, the “soluble on expression in E. coli” value is “not soluble”. The same measure for “MSLAMKKHLFTLTLSSVLAIPAVSHAEFKGGFADIGIHYLDWTSRTTEKSSTKSHKDDFGYLELEGGANFSWGEMYGFFDWENFYNDRHDKPGSEQRYTFKNTNRIYLGDTGFNLYLHAYGTYGSANRVNFHDDMFLYGIGYNFTGSGWWFKPFFAKRYTDQTYYTGDNGYVAGWVAGYSFMLGSEKFTLTNWNEYEFDRDATYAAGNGGKEGLNGAVALWWNATSHITTGIQYRYADDKLGEDFYQDAIIYSIKFNFEGHHHHHH”: “not soluble”; for “MDFLERLKSLWPDNAKPADFYNKIDMSASGFSRVWKDGAIPTADYLIKIQEVTGCDLNWLLTGQGSPYMNKGQAVEVRTHTDGTATDTLGNP”: “not soluble”; for “QVQLQESGPGLMKPSETLSLTCSVSGDSIRSDYWSWIRKPPGKGLEYIGYVSYSGSTYYNPSLKSRVTISVDTSKNRFSLKLNSVTAADTAVYYCARWDGDYWGQGILVTVSS”: “soluble”. The same measure for “MANEPQKSDDNGQAAEAVVTDDEIVLQDQQLKTIEDEQKSVPLVATLAPFSILCAEYDNETSAAFLSKATELSEVYGEIRYIRGDGNCFYRAILVGLIEIMLKDRARLEKFIASSRDWTRTLVELGFPDWTCTDFCDFFIEFLEKIHSGVHTEEAVYTILNDDGSANYILMFFRLITSAFLKQNSEEYAPFIDEGMTVAQYCEQEIEPMWKDADHLAINSLIKAAGTRVRIEYMDRTAAPNGGWHYDIPSDDQQIAPEITLLYRPGHYDVIYKKDSTEASEIEN”: “not soluble”; for “MAWALPAQAEQLIYGFQAEQLEYRQGDSEDSFVWDFDALIGTDELKLVWRSEGERVQGAGGFETLENQLRLQFPVSTFFDAVVGVQASTPDGLPDRYNAVLGLKGLAPQWFEIDADLYLSDNSFFRFEGEYEAMLTNRLTLTPSLELTLPLQDDPIYNQAAGGVTLEAGLRLSYDLIDRAVSPYIGVNYERSYGGTADMIRAAGDENGAFSVVFGTRLMFLEHHHHHH”: “not soluble”. The same measure for “MALNNFLTFQLLLLLLRVSSESPWIVAGDVSRIPINFLELAKSPEVFDSMVRIRRKIHENPELGYEEFETSKFIRSELDLIGVKYRFPVAITGIIGYIGTGEPPFVALRADMDALPIQEAVEWEHKSKNPGKMHACGHDGHVAMLLGAAKILQQHRQHLQGTVVLIFQPAEEGLSGAKMMREEGALKNVEAIFGIHLSPRTPFGKAASLAGSFMAGAGAFEAVITGKGGHAAIPQHTIDPVVAASSIVLSLQHLVSRETDPSDSKVVTVTKVNGGNAFNVIPDSITIGGTLRAFTGFTQLQERIKEIITKQAAVHRCNASVNLAPNGNQPMPPTVNNMDLYKKFKKVVRDLLGQEAFVEAVPEMGSEDFSYFAETIPGHFSLLGMQDETQGYASSHSPHYRINEDVLPYGAAIHATMAVQYLKDKASKGSVSGFHDEL”: “soluble”. Take “MGSDKIHHHHHHMAQQKPHDVNEPSRRRLLKGIGALGGALAITGGCPVAHAAKAESSPGTLTPDARQEKQPFYGRHQAGILTPQQASMMLVAFDVLAADKADLERLFRLLTQRIAFLTQGGPAPDTPNPRLPPMDSGILGPWIAPDNLTITVSVGHSLFDERFGLADKAPKKLQPMTRFPNDSLDAALCHGDLLLQICANTQDTVIHALRDVIKHTPDLLSVRWKREGFISDSAARSKGKETPINLLGFKDGTANPASHDSALMDKVVWVTADQDEPAWTVGGSYQAARIIQFHVEFWDRTPLKEQQTIFGRDKHTGAPLGMKNEHDTPDYSKDPNGEVIALDSHIRLANPRTPETQSSLMMRRGYSYSLGVTNAGQLDMGLLFVCYQHDLEKGFLTVQKRLNGEALEEYVKPIGGGYFFVLPGVVDEKHYLGESLLQA”: the “soluble on expression in E. coli” value is “not soluble”. The value for “EVKLVESGGGLVKPGGSLKLSCAASGFTFNNYVMVWLRQTPEKRLEWVASISRGGSTYYPDSVKGRFTISRDNARNILYLQMSSLRSEDTAMYYCVRGTTIVAGDVWGAGTTVTVSSAKTTPPSVYPLAPGSAAQTNSMVTLGCLVKGYFPEPVTVTWNSGSLSSGVHTFPAVLQSDLYTLSSSVTVPSSTWPSETVTCNVAHPASSTKVDKKIVPRDC” was “soluble”. Consider “MGSDKIHHHHHHMLAENLKSLYLDEWNRYVGHEFVRRMEHGDLPLENFKFYLVQDSLYVEEMLRAVMRSTELMPNDMAIRILSSVVLGRDKGMETHAFLEKELGVEKSSRMTMTTYSYTRHLRYSSTIGWPQFLAAWIPCMWGYSEIGKTVLNSPNRYYRTWAEFYASKEYADRVSVILEAMDRFNGDITEIKDYFLISLKFEQMFWQAAFDMEKPI”, for which the “soluble on expression in E. coli” value is recorded as “not soluble”. With “QLPCNLSPLNWVGMQHIDLPTVIDTANQTVNTKVDVYVNLPKSSVKGIHMSRLYHLINHLSVLNTMSIKSVLKQMIDSHQDCGTTAAKIVFKFDLLLKRDAIVSTALSGWKSYPVIIEASIINELFNIEYKLDISYSSTCPCSAALSRQIIKNGFKADFSSQNLIPSADIEAWLEQYATLATPHSQRSIATVVVQPFDYAHDINFVDLIDSIENTLKTPTQTAVKRADEQAFAKLNGENLMFVEDAARRLKMLLDQKYKFWSAQVVHQESLHPHDAIAVAISS”, the “soluble on expression in E. coli” value is reported as “not soluble”. The same measure for “MPTVQTIYSLEKAPEATKDKEPLVVYATSVDWKWVFSYPEQDIETVNYLNIPVDRPILCKISSADSMASLWIPQLGGQKYAMAGMLMDQYLQADKVGTYEGRNANFTGEHFADQEFDVNAVTEKDFNSWVKKTQNEAPKLTKEKYDELMLPENVDELTFSSTHLKYVDHGQDAEYAMEARKRLGYQAVSPHCKTDPFENVKKNEFKKSDDTEE”: “not soluble”. Regarding “YYTDPSLIRQMWDKLERDGFTGGKILDPSMGTGNFFAAMPKHLREKSELYGVELDTITGAIAKHLHPNSHIEIKGFETVAFNDNSFDLVISNVPFANIRIADNRYDRPYMIHDYFVKKSLDLLHDGGQVAIISSTGTMDKRTENILQDIRETTEFLGGVRLPDSAFKAIAGTSVTTDMLFFQKHLDKGYVA”, the “soluble on expression in E. coli” value is reported as “not soluble”. Regarding “MPMLTRILLLLCVALNAPLASAKETLHIYAASSMTNAVNALVADYSQQHDVKLVTVYGGSSSLARQIEAGAPADLFISANEEWANYLVEKGLVKPNKVVTLAANSLVLIRPTAQPVASFELQDAAAWQTALADSRLAVAQVDAVPAGMYAKQALQHAGVWPELESRLAQTNNVRLALALVERGESPLGIVYKTDALLSDKVTIVTAFSAQSHQPIRYPLAQLNDKAASAEWVAYLRSDAAQQILQRFGFESVSE”, the “soluble on expression in E. coli” value is on record as “not soluble”.
